Ten molecules from patent US20210292423A1 (published 2021) can be followed below.

The labels stand for the following.
B1: CODV-Fab 7G3 × 20G6 with humanized 20G6 VL1D_VH1B (bispecific antibody)
light: DIVMTQTPLSLSVTPGQPASISCKSSQSLVHNNGNTYLSWYLQKPGQSPQSLIYKVSNRFSGVPDRFSGSGSGTDFTLKISRVEAEDVGVYYCGQGTQYPFTFGSGTKVEIKGQPKAAPDFVMTQSPSSLTVTAGEKVTMSCKSSQSLLNSGNQKNYLTWYLQKPGQPPKLLIYWASTRESGVPDRFTGSGSGTDFTLTISSVQAEDLAVYYCQNDYSYPYTFGGGTKLEIKTKGPSRTVAAPSVFIFPPSDEQLKSGTASVVCLLNNFYPREAKVQWKVDNALQSGNSQESVTEQDSKDSTYSLSSTLTLSKADYEKHKVYACEVTHQGLSSPVTKSFNRGEC
heavy: EVQLQQSGPELVKPGASVKMSCKASGYTFTDYYMKWVKQSHGKSLEWIGDIIPSNGATFYNQKFKGKATLTVDRSSSTAYMHLNSLTSEDSAVYYCTRSHLLRASWFAYWGQGTLVTVSASQVQLVESGGGVVQPGRSLRLSCAASGFTFTKAWMHWVRQAPGKQLEWVAQIKDKSNSYATYYADSVKGRFTISRDNSKNTLYLQMNSLRAEDTAVYYCRGVYYALSPFDYWGQGTLVTVSSRTASTKGPSVFPLAPSSKSTSGGTAALGCLVKDYFPEPVTVSWNSGALTSGVHTFPAVLQSSGLYSLSSVVTVPSSSLGTQTYICNVNHKPSNTKVDKKVEPKSCDKTHTHHHHHH
B2: humanized 4B4 Fab 4B4_6 (VL1a, VH1A) (Fab, V domains shown)
VH: QVQLVETGGGLVKPGQSLKLTCATSGFTFSNAWMHWVRQSPEKGLEWVAQIKARSNNYATYYAESVKGRFTISRDDSKSTIYLQMNSLTPEDTAIYYCRGTYYASKPFDYWGQGVMVTVSS
VL: DVVMTQTPVSLSVSVGGRVSISCRSSQSLVHDNGNTYLSWSLQKPGKSPKVLIYKVSNRFSGVSSRFTGSGSGTDFTLKISSVQPDDLGVYYCGQGTQYPFTFGSGTKLEIK
notes: expressed as Fab-fragment
B3: humanized 4B4 Fab 4B4_9 (VL2B, VH2A) (Fab, V domains shown)
VH: EVQLVETGGGLVQPGGSLKLTCATSGFTFSNAWMHWVRQSPEKGLEWVAQIKARSNNYATYYAESVKGRFTISRDDSKSTIYLQMNSLRAEDTAIYYCRGTYYASKPFDYWGQGVMVTVSS
VL: DVVMTQTPVSLSVSPGGPVSISCRSSQSLVHDNANTYLSWSLQKPGQSPQVLIYKVSNRFSGVSDRFTGSGSGTDFTLKISRVEPDDLGVYYCGQGTQYPFTFGSGTKLEIK
notes: expressed as Fab-fragment
B4: humanized 4B4 Fab 4B4_17 (VL2A, VH2B) (Fab, V domains shown)
VH: EVQLVETGGGLVQPGGSLKLTCATSGFTFSNAWMHWVRQSPEKGLEWVAQIKARSNNYATYYADSVKGRFTISRDDSKSTIYLQMNSLRAEDTAIYYCRGTYYASKPFDYWGQGVMVTVSS
VL: DVVMTQTPVSLSVSPGGPVSISCRSSQSLVHDNGNTYLSWSLQKPGQSPQVLIYKVSNRFSGVSDRFTGSGSGTDFTLKISRVEPDDLGVYYCGQGTQYPFTFGSGTKLEIK
notes: expressed as Fab-fragment
B5: humanized 4B4 Fab 4B4_1 (VL1a, VH1B) (Fab, V domains shown)
VH: QVQLVETGGGLVKPGQSLKLTCATSGFTFSNAWMHWVRQSPEKGLEWVAQIKARSNNYATYYAVSVKGRFTISRDDSKSTIYLQMNSLTPEDTAIYYCRGTYYASKPFDYWGQGVMVTVSS
VL: DVVMTQTPVSLSVSVGGRVSISCRSSQSLVHDNGNTYLSWSLQKPGKSPKVLIYKVSNRFSGVSSRFTGSGSGTDFTLKISSVQPDDLGVYYCGQGTQYPFTFGSGTKLEIK
notes: expressed as Fab-fragment
B6: humanized 4B4 Fab 4B4_2 (VL1b, VH1B) (Fab, V domains shown)
VH: QVQLVETGGGLVKPGQSLKLTCATSGFTFSNAWMHWVRQSPEKGLEWVAQIKARSNNYATYYAVSVKGRFTISRDDSKSTIYLQMNSLTPEDTAIYYCRGTYYASKPFDYWGQGVMVTVSS
VL: DVVMTQTPVSLSVSVGGRVSISCRSSQSLVHDNANTYLSWSLQKPGKSPKVLIYKVSNRFSGVSSRFTGSGSGTDFTLKISSVQPDDLGVYYCGQGTQYPFTFGSGTKLEIK
notes: expressed as Fab-fragment
B7: humanized 4B4 Fab 4B4_7 (VL1b, VH1A) (Fab, V domains shown)
VH: QVQLVETGGGLVKPGQSLKLTCATSGFTFSNAWMHWVRQSPEKGLEWVAQIKARSNNYATYYAESVKGRFTISRDDSKSTIYLQMNSLTPEDTAIYYCRGTYYASKPFDYWGQGVMVTVSS
VL: DVVMTQTPVSLSVSVGGRVSISCRSSQSLVHDNANTYLSWSLQKPGKSPKVLIYKVSNRFSGVSSRFTGSGSGTDFTLKISSVQPDDLGVYYCGQGTQYPFTFGSGTKLEIK
notes: expressed as Fab-fragment
B8: humanized 4B4 Fab 4B4_10 (VL1_CM2, VH6_BM2) (Fab, V domains shown)
VH: QVQLVESGGRVVQPGRSLRLTCAASGFTFSNAWMHWVRQAPGKQLEWVAQIKARSNNYATYYAESVKGRFTISRDDSKSTIYLQMNSLRAEDTAVYYCRGTYYASKPFDYWGQGTTVTVSS
VL: DVVMTQSPLSLSVTLGQPVSISCRSSQSLVHDNGNTYLSWSLQRPGQSPRVLIYKVSNRFSGVPDRFSGSGSGTDFTLKISRVEAEDVGVYYCGQGTQYPFTFGSGTKLEIK
B9: humanized 4B4 Fab 4B4_20 (VL2F, VH6C) (Fab, V domains shown)
VH: QVQLVESGGGVVQPGRSLRLSCAASGFTFSNAWMHWVRQAPGKQLEWVAQIKARSNNYATYYADSVKGRFTISRDDSKSTLYLQMNSLRAEDTAVYYCRGTYYASKPFDYWGQGTLVTVSS
VL: DIVMTQTPLSLSVTPGQPASISCKSSQSLVHDNANTYLSWYLQKPGQSPQSLIYKVSNRFSGVPDRFSGSGSGTDFTLKISRVEAEDVGVYYCGQGTQYPFTFGSGTKVEIK
notes: expressed as Fab-fragment
B10: humanized 4B4 Fab 4B4_5 (VL2C, VH6D) (Fab, V domains shown)
VH: QVQLVESGGGVVQPGRSLRLSCATSGFTFSNAWMHWVRQAPGKQLEWVAQIKARSNNYATYYADSVKGRFTISRDDSKSTIYLQMNSLRAEDTAVYYCRGTYYASKPFDYWGQGTLVTVSS
VL: DIVMTQTPLSLSVTPGQPASISCKSSQSLVHDNGNTYLSWSLQKPGQSPQVLIYKVSNRFSGVPDRFSGSGSGTDFTLKISRVEAEDVGVYYCGQGTQYPFTFGSGTKLEIK
notes: expressed as Fab-fragment

The target of the first assay is T1, human CD3ε/δ-Fc fusion protein (soluble recombinant CD3ε/δ complex) (human, UniProt P04234 22-105).
T1 construct: also called huCD3ε/δ; huCD3; not shown: hinge, CH2, CH3 of human IgG with tag
T1 sequence (chain, as listed by the source mutant, chain 1 of 2): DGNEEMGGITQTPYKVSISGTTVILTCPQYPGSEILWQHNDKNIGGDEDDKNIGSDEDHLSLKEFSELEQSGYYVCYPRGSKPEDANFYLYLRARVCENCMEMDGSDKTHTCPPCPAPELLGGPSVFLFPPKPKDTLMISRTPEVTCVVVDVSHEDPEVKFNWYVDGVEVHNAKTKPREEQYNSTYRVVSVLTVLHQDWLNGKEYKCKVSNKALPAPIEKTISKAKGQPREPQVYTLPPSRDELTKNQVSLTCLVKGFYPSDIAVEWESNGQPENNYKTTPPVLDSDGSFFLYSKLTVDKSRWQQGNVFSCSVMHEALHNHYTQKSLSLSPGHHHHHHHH
T1 sequence (P04234 22-105, stated change not applied, chain 2 of 2): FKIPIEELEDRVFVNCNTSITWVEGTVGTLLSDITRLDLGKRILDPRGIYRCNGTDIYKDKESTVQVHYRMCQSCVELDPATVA
Kind of assay: SPR Biacore, CODV-Fab on recombinant CD3ε/δ. The protocol:
(§1) Binding affinities of anti-CD3 binding Fabs or CODV-Fabs were measured by surface plasmon resonance (SPR) using a Biacore3000 instrument (GE Healthcare). Assay buffer was HBS-EP (BR-1001-88, GE Healthcare). Capture of CD3ε/δ-Fc fusion proteins was achieved using the human antibody capture kit (GE Healthcare). […] The CD3εδ-Fc fusions proteins were captured at 10 μl/min to approx. 70 RU to yield Rmax values of 30 RU. Binding kinetics with the anti-CD3 Fabs or CODV-Fabs was measured at 30 μl/min for 240 sec. and 600 sec. for association and dissociation phase, respectively. Twofold dilutions of Fabs from 3 to 400 nM in assay buffer were used. All Fab concentrations were run in duplicate together with duplicate buffer blanks for double referencing. Regeneration of the capture surface was performed with a 1 min injection of 3M MgCl2 solution at 30 μl/min. For data analysis the BIAevaluation software v.4.1 (GE Healthcare) was used. Data were fit globally using a 1:1 Langmuir model with mass transfer.
(In general: In SPR one partner is held on a chip, and binding of the other changes the refractive index at the surface.)
Usually Kd stands for the concentration at which binding is half-saturated. In general, koff refers to the first-order rate constant of dissociation. As a reminder, the kon is the rate constant with which the complex forms. In the case of B1, the Kd came out at 58.7 nM, the koff came out at 0.00109 s⁻¹ and the kon was determined as 18600 M⁻¹ s⁻¹.

For a further assay, the target named is T1, human CD3ε/δ-Fc fusion protein (soluble …). Kind of assay: SPR Biacore, Fab. The protocol:
as §1
For the molecule B2, the Kd came out at 1.24 nM, the off-rate constant (koff) was found to be 0.00185 s⁻¹ and the on-rate constant (kon) worked out at 1.5e+06 M⁻¹ s⁻¹.

On to B3, for which the dissociation constant (Kd) came to 13.4 nM, the koff is 0.00291 s⁻¹ and the on-rate constant (kon) came out at 218000 M⁻¹ s⁻¹.

On to B4, for which the Kd is 8.91 nM, the off-rate constant (koff) was found to be 0.00276 s⁻¹ and the kon is 310000 M⁻¹ s⁻¹.

For B5, the Kd was found to be 2.77 nM, the off-rate constant (koff) was determined as 0.00174 s⁻¹ and the association rate constant (kon) is 628000 M⁻¹ s⁻¹.

As for B6, the Kd worked out at 7.48 nM, the koff is 0.00214 s⁻¹ and the kon was 286000 M⁻¹ s⁻¹.

In the case of B7, the dissociation constant (Kd) stood at 8.1 nM, the koff came out at 0.00248 s⁻¹ and the kon was 306000 M⁻¹ s⁻¹.

For B8, the equilibrium dissociation constant (Kd) was 9.19 nM, the koff is 0.00399 s⁻¹ and the on-rate (kon) is 434000 M⁻¹ s⁻¹.

For B9, the Kd was found to be 33.5 nM, the koff came to 0.00171 s⁻¹ and the kon was 50900 M⁻¹ s⁻¹.

B10: the Kd was found to be 18.2 nM, the koff is 0.00423 s⁻¹ and the on-rate constant (kon) worked out at 233000 M⁻¹ s⁻¹.
